Assay results as given in patent US20220396632A1 (VERSEAU THERAPEUTICS, published 2022).
Where a chain is given by its changes, count along the chain named. Blank lines part the entries; values can stand above or below the binder they belong to. Non-standard residues stand in square brackets, D forms with d. No end group written: not given here. *: point of attachment. Biotin = O=C1N[C@H]2[C@H](CS[C@H]2CCCCC(=O)*)N1; sY = N[C@@H](Cc1ccc(OS(=O)(=O)O)cc1)C(=O)O

Assays:
[1] = molecular target: T1, Cynomolgus PSGL-1(ECD)-hFc1 (cynomolgus macaque); experiment: ELISA, 20 nM mAb on plate cyno PSGL-1(ECD)-Fc
T1 construct: also called Cyno PSGL1-Fc; Cyno PSGL-1(ECD)-Fc
Method: Antibody binding to plate-immobilized cyno PSGL-1(ECD) was determined either at one concentration (20 nM) or by generating full antibody binding curves (0.003-200 nM). A typical ELISA was performed by overnight coating at 4° C. with 3 ug/mL/25 ul per well of recombinant cyno PSGL-1(ECD) protein in PBS, pH 7.4, in high binding half-well plates (Corning Cat. #3690). […] Anti-PSGL-1 IgG in assay buffer (blocking buffer containing 0.05% tween 20) was added into test and control wells (20 nM/25 ul/well) and the plate incubated for 45 min at 37° C. […] The plate was incubated for 45 min at 37° C., and mAb bound to plate-immobilized target determined at A450 nm using HRP substrate (3,3′,5,5′-tetramethylbenzidine (TMB)). For each antibody, duplicate values were averaged and assay background subtracted.

[2] = molecular target: T2, Biotin Y46,48,51(SO3) PSGL-1(42-62) peptide (human, sulfotyrosine at Y46, Y48 and Y51; C-terminal Lys-biotin); experiment: ELISA, immobilized biotin peptide
T2 construct: also called fully sulfated N-terminal PSGL-1 peptide
T2 peptide: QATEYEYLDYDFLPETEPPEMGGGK
Method: (§1) A typical ELISA was performed by coating high binding half-well plates (Corning Cat. #3690) with 3 ug/mL/25 ul per well of biotinylated N-terminal PSGL-1 peptides, which incorporated residues 42 to 62 of the protein, in PBS, pH 7.4, overnight at 4° C. The peptide was unmodified or contained sulfated tyrosine at all 3 tyrosine positions (46, 48, and 51) or at one position (tyr51) (Table 7).
(§2) PSGL-1 protein or peptide served as a positive control. […] […] […] For each antibody, duplicate values were averaged and average assay background was subtracted.

[3] = molecular target: T3, Scrambled Y42,52,63(SO3) PSGL-1(42-62) biotin peptide (sulfotyrosine at peptide positions 1, 11 and 22; C-terminal Lys-biotin); experiment: ELISA, immobilized biotin peptide
T3 peptide: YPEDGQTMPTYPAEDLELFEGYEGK
Method: as §1, §2

[4] = molecular target: T4, Biotin PSGL-1(42-62) peptide, unmodified (human, C-terminal Lys-biotin); experiment: ELISA, immobilized biotin peptide
T4 construct: Residues 42-62 followed by GGGK-biotin; also called WT; wild-type
T4 peptide: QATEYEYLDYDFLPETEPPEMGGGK
Method: as §1, §2

[5] = molecular target: T5, Human fibrinogen protein (ThermoFisher, RP-43142) (human, UniProt P02671 20-629; P02675 31-491; P02679 27-453, limits assumed, natural sulfotyrosines); experiment: ELISA, 50 nM mAb
T5 construct: mature; Native dimer with 3 pairs of non-identical chains; also called gamma-fibrinogen; γ fibrinogen protein
T5 sequence (looked up) 1: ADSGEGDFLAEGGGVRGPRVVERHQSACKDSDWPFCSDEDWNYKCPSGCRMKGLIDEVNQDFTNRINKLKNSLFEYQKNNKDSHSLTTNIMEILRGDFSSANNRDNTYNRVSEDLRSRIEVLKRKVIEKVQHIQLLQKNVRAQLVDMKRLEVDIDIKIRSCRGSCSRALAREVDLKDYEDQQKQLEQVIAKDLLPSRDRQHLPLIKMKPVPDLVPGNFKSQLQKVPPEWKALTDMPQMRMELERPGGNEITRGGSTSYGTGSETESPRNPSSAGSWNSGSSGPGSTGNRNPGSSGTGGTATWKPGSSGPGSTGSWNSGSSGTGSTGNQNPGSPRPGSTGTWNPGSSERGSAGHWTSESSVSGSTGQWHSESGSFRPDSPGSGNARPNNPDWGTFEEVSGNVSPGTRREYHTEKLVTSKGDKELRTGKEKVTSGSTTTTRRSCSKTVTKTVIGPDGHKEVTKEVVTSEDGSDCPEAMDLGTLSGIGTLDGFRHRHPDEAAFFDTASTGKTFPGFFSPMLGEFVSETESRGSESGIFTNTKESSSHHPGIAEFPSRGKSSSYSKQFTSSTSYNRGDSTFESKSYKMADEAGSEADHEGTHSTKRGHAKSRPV
T5 sequence (looked up) 2: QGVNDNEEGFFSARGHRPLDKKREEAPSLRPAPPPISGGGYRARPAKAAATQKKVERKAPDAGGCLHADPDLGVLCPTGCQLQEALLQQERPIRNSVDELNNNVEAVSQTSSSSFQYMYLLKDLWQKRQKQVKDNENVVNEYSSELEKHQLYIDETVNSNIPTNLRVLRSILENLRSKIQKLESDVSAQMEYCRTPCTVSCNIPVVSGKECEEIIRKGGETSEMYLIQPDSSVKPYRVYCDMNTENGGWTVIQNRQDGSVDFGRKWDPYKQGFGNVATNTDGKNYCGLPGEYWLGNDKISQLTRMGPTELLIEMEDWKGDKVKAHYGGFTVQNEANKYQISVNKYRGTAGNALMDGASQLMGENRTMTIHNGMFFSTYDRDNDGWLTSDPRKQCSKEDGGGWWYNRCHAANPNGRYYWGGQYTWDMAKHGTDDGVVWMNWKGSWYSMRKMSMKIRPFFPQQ
T5 sequence (looked up) 3: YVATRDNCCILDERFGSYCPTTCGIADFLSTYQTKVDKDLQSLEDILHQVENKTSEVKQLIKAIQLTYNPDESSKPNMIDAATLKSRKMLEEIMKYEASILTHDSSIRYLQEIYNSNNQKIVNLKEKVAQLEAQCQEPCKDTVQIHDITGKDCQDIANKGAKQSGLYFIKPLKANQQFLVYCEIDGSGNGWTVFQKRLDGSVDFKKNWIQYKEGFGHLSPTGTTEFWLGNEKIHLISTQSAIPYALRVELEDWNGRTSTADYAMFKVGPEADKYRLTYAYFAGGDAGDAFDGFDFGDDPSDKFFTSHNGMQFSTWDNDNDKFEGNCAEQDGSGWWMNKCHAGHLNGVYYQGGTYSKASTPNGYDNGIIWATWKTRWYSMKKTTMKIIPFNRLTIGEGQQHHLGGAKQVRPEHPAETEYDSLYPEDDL
Method: (§3) Recombinant PSGL-1-hFc1 chimera protein consisting of PSGL-1's extracellular domain (ECD) served as a positive control. […] Primary antibody was added (25 ul per well) in duplicate at 50 nM in assay buffer (blocking buffer containing 0.05% Tween®20) into test and control (just blocked) wells and the plate incubated for 45 min at 37° C.

[6] = molecular target: T6, Recombinant human PSGL-1(ECD)-hFc1 (R&D Systems, Cat. 3345-PS) (human, UniProt Q14242 42-305); experiment: ELISA, 50 nM mAb
T6 construct: Bought; Gln42-Val295 counted on AAC50061; also called PSGL-1-Fc; PSGL-1-hFc1 chimera; not shown: human IgG1 Fc, Pro100-Lys330
T6 sequence: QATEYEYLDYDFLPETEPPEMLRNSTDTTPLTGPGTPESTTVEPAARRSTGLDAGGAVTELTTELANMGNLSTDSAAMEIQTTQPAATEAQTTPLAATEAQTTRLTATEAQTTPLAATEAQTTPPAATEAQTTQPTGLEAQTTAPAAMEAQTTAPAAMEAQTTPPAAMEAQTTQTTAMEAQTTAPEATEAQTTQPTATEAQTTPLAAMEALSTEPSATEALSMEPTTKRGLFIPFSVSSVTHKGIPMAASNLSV
Method: as §3

[7] = molecular target: T7, Sulfotyrosine CCR2b biotin peptide (human); experiment: ELISA, 50 nM mAb
T7 construct: also called CCR2b peptide
T7 peptide: TTFFD[sY]D[sY]GAPSHGGK(Biotin)
Method: as §3

[8] = molecular target: T8, Sulfotyr fibrinogen γ peptide (not fully specified; Y8 and Y12 sulfated (SO3); C-terminal biotin); experiment: ELISA, 50 nM mAb
T8 construct: also called Fibrinogen gamma peptide; human sulfotyrosinylated fibrinogen peptide
T8 peptide: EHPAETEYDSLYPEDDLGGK
Method: as §3

SulfoTyr C4 peptide = molecular target: T9, SulfoTyr C4 peptide (not fully specified; Y4, Y7 and Y9 sulfated (SO3); C-terminal biotin); experiment: ELISA, 50 nM mAb
T9 construct: also called C4 alpha chain peptide; human sulfotyrosinylated C4 peptide
T9 peptide: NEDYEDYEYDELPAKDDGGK
Method: as §3

[9] = molecular target: T10, Human complement C4 protein (Millipore Sigma, Cat. 204886) (human, UniProt P0C0L4 20-675; P0C0L4 680-1446; P0C0L4 1454-1744, limits assumed, natural sulfotyrosines); experiment: ELISA, 50 nM mAb
T10 construct: mature
Method: as §3

SulfoCCK biotin peptide = molecular target: T11, SulfoCCK biotin peptide (human); experiment: ELISA, 50 nM mAb
T11 construct: also called sulfotyrosine CCK peptide
T11 peptide: SHRISDRD[sY]MGWMDFGGK(Biotin)
Method: as §3

[10] = molecular target: T12, Sulfotyrosine D6 biotin peptide (human); experiment: ELISA, 50 nM mAb
T12 construct: also called D6 peptide
T12 peptide: ENSSFY[sY][sY]D[sY]LDEVAFGGK(Biotin)
Method: as §3

T10 sequence (P0C0L4 20-675 limits assumed, form in doubt, chain 1 of 3): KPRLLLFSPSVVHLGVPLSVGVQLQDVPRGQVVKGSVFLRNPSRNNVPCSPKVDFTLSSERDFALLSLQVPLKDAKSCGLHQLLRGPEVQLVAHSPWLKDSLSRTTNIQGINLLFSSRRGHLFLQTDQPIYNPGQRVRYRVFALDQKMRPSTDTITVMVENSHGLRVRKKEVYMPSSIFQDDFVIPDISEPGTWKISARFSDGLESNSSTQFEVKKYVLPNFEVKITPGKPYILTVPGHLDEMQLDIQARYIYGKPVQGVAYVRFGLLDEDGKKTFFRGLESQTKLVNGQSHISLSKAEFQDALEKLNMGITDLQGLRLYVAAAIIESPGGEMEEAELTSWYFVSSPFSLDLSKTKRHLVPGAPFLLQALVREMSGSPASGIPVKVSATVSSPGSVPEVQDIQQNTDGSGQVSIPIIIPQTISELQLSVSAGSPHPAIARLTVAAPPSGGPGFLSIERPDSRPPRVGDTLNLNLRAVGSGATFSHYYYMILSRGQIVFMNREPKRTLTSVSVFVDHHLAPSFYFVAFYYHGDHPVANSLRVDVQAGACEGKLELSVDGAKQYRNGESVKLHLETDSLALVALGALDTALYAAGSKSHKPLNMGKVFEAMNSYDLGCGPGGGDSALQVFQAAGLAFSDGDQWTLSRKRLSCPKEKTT
T10 sequence (P0C0L4 680-1446 limits assumed, form in doubt, chain 2 of 3): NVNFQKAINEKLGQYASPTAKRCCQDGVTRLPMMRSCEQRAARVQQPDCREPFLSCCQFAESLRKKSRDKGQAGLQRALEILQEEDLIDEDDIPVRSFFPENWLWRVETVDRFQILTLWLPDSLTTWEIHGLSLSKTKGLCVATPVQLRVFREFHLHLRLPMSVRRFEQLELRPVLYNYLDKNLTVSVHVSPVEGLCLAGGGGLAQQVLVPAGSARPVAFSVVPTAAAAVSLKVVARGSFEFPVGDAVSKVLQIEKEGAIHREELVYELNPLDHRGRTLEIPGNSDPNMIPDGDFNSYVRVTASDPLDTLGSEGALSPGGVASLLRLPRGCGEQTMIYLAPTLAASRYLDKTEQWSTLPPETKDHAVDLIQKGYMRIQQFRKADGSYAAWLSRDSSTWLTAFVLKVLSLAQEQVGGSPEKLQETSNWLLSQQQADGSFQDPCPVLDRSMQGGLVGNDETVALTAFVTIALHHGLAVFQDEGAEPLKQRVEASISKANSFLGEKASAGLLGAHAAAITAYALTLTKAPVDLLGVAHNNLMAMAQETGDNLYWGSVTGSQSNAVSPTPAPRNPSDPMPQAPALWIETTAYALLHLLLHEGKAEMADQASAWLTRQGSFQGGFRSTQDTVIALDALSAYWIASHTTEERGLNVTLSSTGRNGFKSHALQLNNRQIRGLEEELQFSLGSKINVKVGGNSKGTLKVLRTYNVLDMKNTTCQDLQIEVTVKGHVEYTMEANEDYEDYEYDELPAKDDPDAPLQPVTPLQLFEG
T10 sequence (P0C0L4 1454-1744 limits assumed, form in doubt, chain 3 of 3): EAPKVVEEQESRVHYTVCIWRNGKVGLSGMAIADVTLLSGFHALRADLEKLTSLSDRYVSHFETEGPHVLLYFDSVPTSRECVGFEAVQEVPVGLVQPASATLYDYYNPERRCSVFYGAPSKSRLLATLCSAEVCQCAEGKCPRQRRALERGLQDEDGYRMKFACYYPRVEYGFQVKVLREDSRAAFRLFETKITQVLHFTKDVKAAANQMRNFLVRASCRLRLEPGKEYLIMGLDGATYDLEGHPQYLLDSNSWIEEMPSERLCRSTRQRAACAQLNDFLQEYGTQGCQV

B1: 08C10 (antibody, IgG4, V domains shown)
VH: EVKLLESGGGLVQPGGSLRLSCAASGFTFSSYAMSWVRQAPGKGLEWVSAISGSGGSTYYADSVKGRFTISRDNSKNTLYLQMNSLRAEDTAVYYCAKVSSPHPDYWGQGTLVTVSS
VL: LPVLTQPSSLSASPGASASLTCTLRSGLNVGTYRMYWYQQRPGSPPRYLLRYKSNSDKQQGSGVPSRFSGSKDASANAGILLISGLQSEDEADYYCLIWHNSAWVFGGGTKLTVL
- A450nm [1]: 0.31 A450 nm
- A450nm, 20 nM mAb [2]: 2.57 A450nm
- EC50 [2]: 0.33 nM
- binding result [3]: no binding (tested: 20 nM)
- EC50 [4]: ~500 nM
- binding normalized to PSGL-1 [5]: 0.46
- A450nm [6]: 2.3 A450nm
- binding normalized to PSGL-1 [7]: 1.27
- binding normalized to PSGL-1 [8]: 1.18
- binding normalized to PSGL-1 (SulfoTyr C4 peptide): 1.14
- binding normalized to PSGL-1 [9]: 1.22
- binding normalized to PSGL-1 (SulfoCCK biotin peptide): 1.02

B3: 03B03 (antibody, IgG4, V domains shown)
VH: EVQLVQSGGGLVQPGGSLRLSCAATGFTVSRNYMTWVREAPGKGLEWVAGIYKSGTTSYTESVKGRFTISRDNSKNTLYLEMSRLRAEDTAVYYCAKSTSTWGQGTQVTVSS
VL: DIVMTQSPLSLPVTLGQPASISCRASQSPGYSDGNTYLNWFQQRPGQSPRRLIYKVSNRDPGVPDRFSGSGSGTDFTLKISRVEAEDVGVYYCMQATHWPSFGQGTRLEIK
- A450nm [1]: 0.45 A450 nm
- A450nm, 20 nM mAb [2]: 2.5 A450nm
- A450nm, 20 nM mAb [3]: 0.04 A450nm
- binding result [3]: no binding (tested: 20 nM)
- A450nm, 20 nM mAb [4]: 2.21 A450nm
- binding normalized to PSGL-1 [5]: 0.27
- binding normalized to PSGL-1 [7]: 0.89
- binding normalized to PSGL-1 [8]: 1.01
- binding normalized to PSGL-1 (SulfoTyr C4 peptide): 1
- binding normalized to PSGL-1 [9]: 0.94
- binding normalized to PSGL-1 (SulfoCCK biotin peptide): 0.98

B4: 03D01 (antibody, IgG4, V domains shown)
VH: B3 VH with T60I
VL: DVVMTQSPVSLPVTLGQPASISCRSSRNLLYSNGNTYLNWFHQRPGQSPRRLIYKVSNQDSGVPDRFSGSGSGTDFTLKISRVEAEDVGVYYCMQGTHWPTTFGQGTRLEIK
- A450nm [1]: 0.71 A450 nm
- A450nm, 20 nM mAb [2]: 2.67 A450nm
- A450nm, 20 nM mAb [4]: 2.52 A450nm
- binding normalized to PSGL-1 [5]: -0.2
- binding result [5]: no binding (tested: 50 nM)
- binding normalized to PSGL-1 [7]: 0.94
- binding normalized to PSGL-1 [8]: 1.17
- binding normalized to PSGL-1 (SulfoTyr C4 peptide): 1.13
- binding normalized to PSGL-1 [9]: 1.07
- binding normalized to PSGL-1 (SulfoCCK biotin peptide): 0.94

Now from value to binder:

- A450nm [1]: 0.68 A450 nm
- A450nm, 20 nM mAb [2]: 2.68 A450nm
- binding normalized to PSGL-1 [5]: 0.68
- A450nm [6]: 2.18 A450nm
- binding normalized to PSGL-1 [7]: 0.98
- binding normalized to PSGL-1 [8]: 1.18
- binding normalized to PSGL-1 (SulfoTyr C4 peptide): 1.08
- binding normalized to PSGL-1 [9]: 1.16
- binding normalized to PSGL-1 (SulfoCCK biotin peptide): 0.56
B2: 10B03 (antibody, IgG4, V domains shown)
VH: EVKLLESGGDLVQPGGSLRLSCAASGLTFSNYAMSWVRQAPGKGLEWVSAISGSGDNTYYADSVKGRFTISRDNSKNTLYLQMNSLRADDTAVYFCAKRDSWGQGTLVTVSS
VL: QAVLTQPPSASGTPGQRVTISCSGSTSNIGSRDVYWYQHLPGTAPKLVIYRNDQRPSGVPDRFSGSKSGTSASLAISGLRSEDDADYYCAVWDNSLRGRVFGGGTKLTVL

- A450nm [1]: 1.81 A450 nm
- A450nm, 20 nM mAb [2]: 2.73 A450nm
- A450nm, 20 nM mAb [4]: 2.45 A450nm
- binding normalized to PSGL-1 [5]: 0.8
- binding normalized to PSGL-1 [7]: 0.08
- binding normalized to PSGL-1 [8]: 0.16
- binding normalized to PSGL-1 (SulfoTyr C4 peptide): 0.24
- binding normalized to PSGL-1 [9]: 0.87
- binding normalized to PSGL-1 (SulfoCCK biotin peptide): 0.87
- binding normalized to PSGL-1 [10]: 0.82
B5: 01A04 (antibody, IgG4, V domains shown)
VH: EVQLVQSGAEVKKPGASVKVSCKASGYTFTSYYIHWVRQAPGQGLEWMGIIRPSGGSTSYAQKFQGRVTMTRDTSTSTVYMELSSLRSEDTAMYYCARVGVGSFDYWGQGTLVTVSS
VL: DIQMTQSPSTLSASVGDRVTITCRASQSVSNWLAWYQQKPGKAPKLLIYKASSLESGVPSRFSGSGSGTEFTLTISSLQPDDFATYYCQWFRTFGPGTKVDIK
